This is an account of results in patent US20210040181A1 (Bristol-Myers Squibb, published 2021).

The target of one assay is EGFR 525-Fc (human) (UniProt P00533). The experiment in a line: direct binding ELISA, single point; clone captured by anti-His, 50 nM receptor-Fc, anti-human Fc HRP. (In general: In an ELISA, binding on a coated surface is turned into a signal by an enzyme label.)
Assay [1] deals with EGFR-Fc (R&D Systems), ectodomain of human EGFR as a Fc fusion (human) (UniProt P00533). The assay is described as above.
The target in assay [2] is T1, EGFR-Fc (R&D Systems), ectodomain of human EGFR as a Fc fusion (human, UniProt P00533 25-645).
T1 construct: extracellular domain; Bought from R&D Systems; also called EGFR-FL-Fc; full length EGFR Fc fusion protein; not shown: Fc of the purchased fusion
Described as above. As to the method: Proteins encoded by independent clones were analyzed for binding to the full length ectodomain of EGFR as well as a truncated version containing the first 525 amino acids (EGFR 525) of the EGFR ectodomain in single point direct binding assays. Anti-His antibodies were used to capture protein clones in an oriented fashion followed by incubation with full length EGFR or EGFR 525 Fc fusion proteins. Bound receptor-Fcs were detected via anti-human Fc HRP conjugate with a chromogenic readout (i.e. A450). […] The SGE control is the ¹⁰FN3 domain as shown in SEQ ID NO: 1 with the integrin binding domain (RGD) substituted with amino acids SGE.
The protein populations resulting from the above selections are expressed in E. coli as His6 tagged proteins. The direct binding ELISA relies on the oriented capture of His6 tagged clones onto anti-His monoclonal antibody plates (EMD Biosciences, San Diego, Calif.) blocked with casein block buffer (Pierce, Rockford, Ill.) for 1-2 hrs. Typically a 1:50 dilution of HTPP material (0.2-2 ug) is captured for 1 hr, followed by incubation with 50 nM of the EGFR-Fc targets. Bound EGFR-Fcs are detected by incubation with anti-human HRP. Bound HRP conjugate is detected using the colorimetric substrate TMB (BD Biosciences, San Jose, Calif.) following the manufacturer's instructions.

The target in assay [3] is T2, EGFR on the surface of human A431 cells (human, UniProt P00533 25-1210).
T2 construct: whole, on cells; also called HER-1; EGF receptor on cells
Put plainly: cell-based competitive ligand binding assay on A431 cells, competitor Eu-EGF, time-resolved fluorescence (RFUs); parameter C of the four-parameter fit y = ((A - D)/(1 + (x/C)^B)) + D, x axis in nM; the legend calls C the IC50 but prints 258.258. As to the method: (§1) Human epithelial carcinoma cells, clone A431, which express large numbers of EGFRs on the cell surface, are plated into 96 well tissue culture plates and allowed to adhere for 48 hours. The cells are washed with serum free media and dilutions of the selected clones are incubated with the cells for 15 minutes, 37° C. in a humidified incubator in 5% CO₂. This incubation allows binding of the clone to the EGFR on the cell surface.

Assay [4] concerns the target T2, EGFR on the surface of human A431 cells. The experiment in a line: competition with 10 nM Eu-EGF on A431 cells, time resolved fluorescence; Midscale preparation. As to the method:
as §1

On to “SGE control (10FN3 domain of SEQ ID NO: 1 with RGD substituted with SGE) (designed binder)”, for which the A450 in the assay with EGFR 525-Fc (human) is 0.139 A450; in assay [1], 0.143 A450.

B1: 867B10 (designed binder)
chain: VSDVPRDLEVVAATPTSLLISWKSVYVDYRYYRITYGETGGNSPVQEFTVPHSNLTATISGLKPGVDYTITVYAVTVYESYVANDSPISINYRT
notes: 10Fn3-based clone expressed in E. coli as His6 tagged protein; not shown: His6 tag
For the molecule B1, the A450 in assay [2] is 2.96 A450; with EGFR 525-Fc (human) it was 2.55 A450.

B2: 867E05 (designed binder)
chain: VSDVPRDLEVVAATPTSLLISWNRHAMASRYYRITYGETGGNSPVQEFTVPDVPFTATISGLKPGVDYTITVYAVTMSDKAMDMRTPSIGPISINYRT
notes: as for B1
Take B2: the A450 in assay [2] came out at 1.72 A450; in the assay with EGFR 525-Fc (human), 1.68 A450.

B3: 679B10 (designed binder)
chain: VSDVPRDLEVVAATPTSLLISWRLTAPLGRYYRITYGETGGNSPVQEFTVPDIPFTATISGLKPGVDYTITVYAVTLSDSAHGGLRDVPISINYRT
notes: as for B1
As to B3, the A450 was 1.38 A450 in assay [2] and 1.74 A450 in the assay with EGFR 525-Fc (human).

B4: 867A01 (designed binder)
chain: VSDVPRDLEVVAATPTSLLISWQQQHTNYRYYRITYGETGGNSPVQEFTVPGRASTATISGLKPGVDYTITVYAVTEHPYYGDPPISINYRT
notes: as for B1
For B4, the A450 in assay [2] is 1.4 A450; with EGFR 525-Fc (human) it was 0.137 A450. The IC50 (commonly the concentration needed to halve the response being measured) in assay [3] was 258 nM.

B5: 679G06 (designed binder)
chain: VSDVPRDLEVVAATPTSLLISWYSDYYDNRYYRITYGETGGNSPVQEFTVPRYMMTATISGLKPGVDYTITVYAVTYSYHDPNPMMPISINYRT
notes: as for B1
Turning to B5, the figures for the A450 (in assay [2]; with EGFR 525-Fc (human)) were 2.1 A450 and 0.128 A450, respectively.

B6: 867C04 (designed binder)
chain: VSDVPRDLEVVAATPTSLLISWESKYVNYRYYRITYGETGGNSPVQEFTVPHLMTATISGLKPGVDYTITVYAVTVGGDHMYSSLPISINYRT
notes: as for B1
Turning to B6, the A450 in assay [2] was 1.95 A450; with EGFR 525-Fc (human) it was 1.57 A450.

B7: 679F03 (designed binder)
chain: VSDVPRDLEVVAATPTSLLISWYHYYSGSQRYYRITYGETGGNSPVQEFTVPHEVYTATISGLKPGVDYTITVYAVTDYAYKEYEEYPISINYRT
notes: as for B1
Turning to B7, the A450 was determined as 2.37 A450 in assay [2] and 2.45 A450 in the assay with EGFR 525-Fc (human). This molecule had an IC50 in assay [4] of 26.8 nM.

B8: 867B09 (designed binder)
chain: VSDVPRDLEVVAATPTSLLISWYLSHSYMRYYRITYGETGGNSPVQEFTVPVIHYTATISGLKPGVDYTITVYAVTSDKISVTVSGPISINYRT
notes: as for B1
Regarding B8, the A450 in assay [2] turned out to be 2.77 A450; with EGFR 525-Fc (human) it was 2.41 A450.

B9: 867C07 (designed binder)
chain: VSDVPRDLEVVAATPTSLLISWHSNYVDYRYYRITYGETGGNSPVQEFTVPHISDITATISGLKPGVDYTITVYAVTVEDMVRESYPPISINYRT
notes: as for B1
For B9, the A450 in assay [2] turned out to be 2.43 A450; with EGFR 525-Fc (human), 2.18 A450.

B10: 867H08 (designed binder)
chain: VSDVPRDLEVVAATPTSLLISWLRVPAYDRYYRITYGETGGNSPVQEFTVPDVPWTATISGLKPGVDYTITVYAVTLDESDMRVGVPISINYRT
notes: as for B1
As to B10, the A450 is 1.9 A450 in assay [2] and 1.79 A450 with EGFR 525-Fc (human).

B11: 867A03 (designed binder)
chain: VSDVPRDLEVVAATPTSLLISWTYRHYPERYYRITYGETGGNSPVQEFTVPDPDSTATISGLKPGVDYTITVYAVTYNHSSTPISINYRT
notes: as for B1
On to B11, for which the results for the A450 (in assay [2]; with EGFR 525-Fc (human)) were 2.3 A450 and 1.85 A450, respectively.

B12: 867A05 (designed binder)
chain: VSDVPRDLEVVAATPTSLLISWYYRKYPGRYYRITYGETGGNSPVQEFTVPDEHTTATISGLKPGVDYTITVYAVTYDSPSQPISINYRT
notes: as for B1
Regarding B12, the A450 was 1.87 A450 in assay [2] and 1.61 A450 with EGFR 525-Fc (human).

B13: 867E02 (designed binder)
chain: VSDVPRDLEVVAATPTSLLISWIRRAKPGRYYRITYGETGGNSPVQEFTVPDVPWTATISGLKPGVDYTITVYAVTLDGVRRVGYLDHPISINYRT
notes: as for B1
Regarding B13, the A450 in assay [2] is 1.42 A450; with EGFR 525-Fc (human), 1.43 A450.

B14: 679A05 (designed binder)
chain: VSDVPRDLEVVAATPTSLLISWARYAECGRYYRITYGETGGNSPVQEFTVPDVPWTATISGLKPGVDYTITVYAVTLGKPPLPGWVSGLDPISINYRT
notes: as for B1
In the case of B14, the figures for the A450 (in assay [2]; with EGFR 525-Fc (human)) were 1.43 A450 and 1.72 A450, respectively.

B15: 679C10 (designed binder)
chain: VSDVPRDLEVVAATPTSLLISWSRYAPGGRYYRITYGETGGNSPVQEFTVPDVPWTATISGLKPGVDYTITVYAVTLSNYEYLARNPISINYRT
notes: as for B1
For the molecule B15, the figures for the A450 (in assay [2]; in the assay with EGFR 525-Fc (human)) were 0.467 A450 and 0.803 A450, respectively.

B16: 679B01 (designed binder)
chain: VSDVPRDLEVVAATPTSLLISWLLLGAPCRYYRITYGETGGNSPVQEFTVPWMGLTATISGLKPGVDYTITVYAVTSERAPCVKVWRCPISINYRT
notes: as for B1
Regarding B16, the A450 in assay [2] amounted to 0.213 A450; with EGFR 525-Fc (human), 0.539 A450.

B17: 679B09 (designed binder)
chain: VSDVPRDLEVVAATPTSLLISWMRWYAPRRYYRITYGETGGNSPVQEFTVPFWQGTATISGLKPGVDYTITVYAVTRGQSGLGMPISINYRT
notes: as for B1
Regarding B17, the A450 in assay [2] was determined as 0.455 A450; with EGFR 525-Fc (human) it was 0.375 A450.

B18: 679A10 (designed binder)
chain: VSDVPRDLEVVAATPTSLLISWDRMLSFLRYYRITYGETGGNSPVQEFTVPLIYPTATISGLKPGVDYTITVYAVTVQLLDQCLRIHGPISINYRT
notes: as for B1
On to B18, for which the A450 in assay [2] is 0.787 A450; in the assay with EGFR 525-Fc (human) it was 0.925 A450.

B19: 679A01 (designed binder)
chain: VSDVPRDLEVVAATPTSLLISWARYAGSDRYYRITYGETGGNSPVQEFTVPDVPFTATISGLKPGVDYTITVYAVTMGHAPTVDIHWTPSPISINYRT
notes: as for B1
B19: the A450 in assay [2] came out at 1.57 A450; in the assay with EGFR 525-Fc (human), 1.53 A450.

B20: 867B08 (designed binder)
chain: VSDVPRDLEVVAATPTSLLISWSGSYKSYRYYRITYGETGGNSPVQEFTVPHYDHATATISGLKPGVDYTITVYAVTVDYTAVQVSYPISINYRT
notes: as for B1
In the case of B20, the values for the A450 (in assay [2]; with EGFR 525-Fc (human)) were 2.61 A450 and 2.49 A450, respectively.

B21: 867F10 (designed binder)
chain: VSDVPRDLEVVAATPTSLLISWHNTYKDYRYYRITYGETGGNSPVQEFTVPHMAYNTATISGLKPGVDYTITVYAVTVTMQALLYSIPISINYRT
notes: as for B1
Take B21: the results for the A450 (in assay [2]; in the assay with EGFR 525-Fc (human)) were 2.78 A450 and 2.32 A450, respectively.
